Measured values as given in patent publication US10400249B2, “HPPD variants and methods of use” (priority 2014, dated 2019).
Substitutions are numbered along the chain they refer to. Numbers in names are those of the source.

B1: K131: PfHPPD variant E335P, G336Y, K339A, A340Q (protein)
chain: MADLYENPMGLMGFEFIEFASPTPGTLEPIFEIMGFTKVATHRSKNVHLYRQGEINLILNNEPNSIASYFAAEHGPSVCGMAFRVKDSQKAYNRALELGAQPIHIDTGPMELNLPAIKGIGGAPLYLIDRFGEGSSIYDIDFVYLEGVERNPVGAGLKVIDHLTHNVYRGRMVYWANFYEKLFNFREARYFDIKGEYTGLTSKAMSAPDGMIRIPLNEESSKGAGQIEEFLMQFNGEGIQHVAFLTDDLVKTWDALKKIGMRFMTAPPDTYYEMLEGRLPDHGEPVDQLQARGILLDGSSVEGDKRLLLQIFSETLMGPVFFEFIQRKGDDGFGPYNFAQLFESIERDQVRRGVLTAD
modifications: HPPD variant - K131
notes: PfHPPD variant E335P, G336Y, K339A, A340Q
B2: K306: PfHPPD variant P215L, Q226H, E335P, G336F, A340E (protein)
chain: B1 chain with P215L, Q226H, Y336F, A339K, Q340E
modifications: HPPD variant - K306
notes: PfHPPD variant P215L, Q226H, E335P, G336F, A340E
B3: K250: PfHPPD variant A188G, R189C, P215L, E335P, G336F, A340E (protein)
chain: B1 chain with A188G, R189C, P215L, Y336F, A339K, Q340E
modifications: HPPD variant - K250
notes: PfHPPD variant A188G, R189C, P215L, E335P, G336F, A340E
B4: K363: PfHPPD variant Q226H, E335P, G336F, A340E (protein)
chain: B1 chain with Q226H, Y336F, A339K, Q340E
modifications: HPPD variant - K363
notes: PfHPPD variant Q226H, E335P, G336F, A340E
B5: K132: PfHPPD variant E335P, G336Y, A340E (protein)
chain: B1 chain with A339K, Q340E
modifications: HPPD variant - K132
notes: PfHPPD variant E335P, G336Y, A340E
B6: K255: PfHPPD variant P215A, E335P, G336F, A340E (protein)
chain: B1 chain with P215A, Y336F, A339K, Q340E
modifications: HPPD variant - K255
notes: PfHPPD variant P215A, E335P, G336F, A340E
B7: K203: PfHPPD variant P215L, E335P, G336Y, A340E (protein)
chain: B1 chain with P215L, A339K, Q340E
modifications: HPPD variant - K203
notes: PfHPPD variant P215L, E335P, G336Y, A340E
B8: K137: PfHPPD variant P215L, E335P, G336Y (protein)
chain: B1 chain with P215L, A339K, Q340A
modifications: HPPD variant - K137
notes: PfHPPD variant P215L, E335P, G336Y
B9: K300: PfHPPD variant P215L, E335P, G336F, A340G (protein)
chain: B1 chain with P215L, Y336F, A339K, Q340G
modifications: HPPD variant - K300
notes: PfHPPD variant P215L, E335P, G336F, A340G
B10: K258: PfHPPD variant P215N, E335P, G336F, A340E (protein)
chain: B1 chain with P215N, Y336F, A339K, Q340E
modifications: HPPD variant - K258
notes: PfHPPD variant P215N, E335P, G336F, A340E
B11: K325: PfHPPD variant A188G, R189C, P215N, E335P, G336F, A340E (protein)
chain: B1 chain with A188G, R189C, P215N, Y336F, A339K, Q340E
modifications: HPPD variant - K325
notes: PfHPPD variant A188G, R189C, P215N, E335P, G336F, A340E

Legend:
[1] = tested on: Pseudomonas fluorescens HPPD protein; assay: HGD assay: HPPD activity coupled to HGA dioxygenase, pI50 and type of inhibition (time-course); type: biochemical; conditions: for tolerance (pI50) Cmpd. 2: inhibitor Cmpd. 2; for pI50-values of Cmpd. 2: assay not given, follows the time-course analysis (HGD assay)
Protocol: (§1) HPPD proteins were produced and purified as described in WO2011/076882. The activity of HPPD proteins in absence or presence of HPPD inhibitors was determined using either the so called OD assay or the HGD assay.
(§2) • a) The OD assay: The HPPD activity was determined colourimetrically by measuring the amount of HPP remaining in the assay mixture at the end of the incubation period after derivatisation of HPP with 2,4-dinitrophenylhydrazine (DNP) to form an amber-brown colored 2,4-dinitrophenylhydrazone under alkaline conditions. The assay was carried out at room temperature in Greiner F-bottom 96 well microplates. The assay mixture contained 50 mM Tris-HCl pH 7.8, 0.5 mM HPP, 10 mM ascorbate, 650 units of catalase and appropriate amounts of purified HPPD enzyme in a total assay volume of 100 μl. The reaction was started by the addition of enzyme. After an incubation time of 24 minutes, the reaction was stopped by the addition of 50 μl of a solution of 0.04% DNP dissolved in 3.8 N HCl. After a further 15-minute incubation period 100 μl of a 5 N KOH solution was added to the reaction mixture and the amount of unconsumed HPP was measured photometrically at 405 nm. Enzyme activity was calculated as the difference in E405 between assays lacking enzyme (negative control) and the enzyme containing assays (ΔE405=E405(negative control)−E405). Enzyme activity (nmol substrate consumed per min) was calculated from a calibration curve generated from HPP. pI50-values (the negative log value of the concentration of inhibitor necessary to inhibit 50% of the enzyme activity in molar concentration were determined from dose-response plots of HPPD activity versus inhibitor concentration tested (5.0×10^−6, 1.0×10^−5, 2.5×10^−5, 4.0×10^−5, 7.0×10^−5, 1.0×10^−4, 2.0×10^−4 and 5.0×10^−4M) using the 4 Parameter Logistic Model or Sigmoidal Dose-Response Model of the ID Business Solutions Ltd. XLfit software suite. The result “>5.6” means that the inhibition at the lowest inhibitor concentration tested was higher than 85% and the pI50-value could therefore not be precisely calculated within in the range of concentration of inhibitor tested. The result “<2.5” means that the inhibition at the highest inhibitor concentration tested was lower than 25% and the pI50-value could therefore not be precisely calculated within in the range of concentration of inhibitor tested. “n.d.” means not determined. • b) The HGD assay: With the HGD assay HPPD activity was measured at room temperature by adding appropriate amounts of HPPD to a solution of 200 mM Tris-HCl pH 7.6, 10 mM ascorbate, 20 μM FeSO4, 650 units of catalase, 8 μg HGA dioxygenase (HGA: homogentisate) and 600 μM HPP in a total volume of 1 ml. Initial reaction rates in the absence or presence of inhibitors were determined from the increase in absorbance at 318 nm due to the formation of maleylacetoacetate (ε318=11,900 M−1 cm-1). pI50-values (the negative log value of the concentration of inhibitor necessary to inhibit 50% of the enzyme activity in molar concentration were determined from dose-response plots of HPPD activity versus inhibitor concentration tested using the 4 Parameter Logistic Model or Sigmoidal Dose-Response Model of the ID Business Solutions Ltd. XLfit software suite. Due to the UV absorption of the HPPD inhibitors tested, inhibitor concentrations >100 μM could not be tested. The result “<4” means that the inhibition at 100 μM inhibitor concentration was lower than 25% and the pI50-value could therefore not be precisely calculated within in the range of concentration of inhibitor tested. “n.d.” means not determined. The HGD assay allowed to continuously follow HPPD-catalyzed HGA formation over time was therefore used to determine the inhibition type of the HPPD inhibitors tested. […] When in the presence of an inhibitor the HPPD activity was inhibited but the inhibition was found not to […] in a time-dependent manner, the inhibitor was called reversible (abbreviation “rev”). […]

[2] = tested on: Pseudomonas fluorescens HPPD protein; assay: OD assay: HPPD activity and pI50 from HPP remaining after derivatisation with DNP; type: biochemical; conditions: for Activity DeltaE/24 min μg Protein: HPPD enzyme activity of the clone; for tolerance (pI50) DKN: inhibitor diketonitrile (DKN), negative log of molar concentration; for tolerance (pI50) MST: inhibitor mesotrione (MST); for tolerance (pI50) TBT: inhibitor tembotrione (TBT); for tolerance (pI50) Cmpd. 2: inhibitor Cmpd. 2
Protocol: as §1, §2

Molecule | mechanism of inhibition by Cmpd. 2, time-course of inhibition [1] | tolerance (pI50) Cmpd. 2 ([1]; HGD assay) | Activity DeltaE/24 min μg Protein [2] | tolerance (pI50) DKN [2] | tolerance (pI50) MST [2] | tolerance (pI50) TBT [2] | tolerance (pI50) Cmpd. 2 [2] | pI50-values of Cmpd. 2 [1] | tolerance (pI50) Cmpd. 1 ([1]; inhibitor Cmpd. 1, HGD assay) | tolerance (pI50) Cmpd. 4 ([1]; inhibitor Cmpd. 4, HGD assay)
B1 | fully reversible inhibitor | 6.2 | 0.50 DeltaE/24 min μg Protein | 3.3 | 3.7 | 4.8 |  |  |  | 
B2 | fully reversible inhibitor | 4.9 | 0.01 DeltaE/24 min μg Protein | <2.5 | 3.7 | 4.8 | 5.1 |  |  | 
B3 | fully reversible inhibitor |  | 0.07 DeltaE/24 min μg Protein | <2.5 | 3.0 | 3.8 | 4.6 | < 4 |  | 
B4 | fully reversible inhibitor |  | 0.20 DeltaE/24 min μg Protein | 3.8 | 4.3 | 5.5 | 5.4 |  |  | 
B5 | fully reversible inhibitor | 5.9 | 0.50 DeltaE/24 min μg Protein | 3.1 | 3.7 | 4.8 |  |  | 5.5 | 6.9
B6 | fully reversible inhibitor |  | 0.09 DeltaE/24 min μg Protein | 3.0 | 3.7 | 4.5 | 5.0 |  |  | 
B7 | fully reversible inhibitor | 5.3 | 0.08 DeltaE/24 min μg Protein | <2.5 | 3.0 | 3.9 |  |  |  | 
B8 | fully reversible inhibitor | 5.5 | 0.12 DeltaE/24 min μg Protein | 2.8 | 3.4 | 4.7 |  |  |  | 
B9 | fully reversible inhibitor | 4.3 | 0.01 DeltaE/24 min μg Protein | <2.5 | <2.5 | 3.1 | 3.8 |  |  | 
B10 | fully reversible inhibitor |  | 0.15 DeltaE/24 min μg Protein | <2.5 | 3.4 | 4.4 | 5.4 |  |  | 
B11 | fully reversible inhibitor |  | 0.41 DeltaE/24 min μg Protein | <2.5 | 3.6 | 4.6 | 5.6 | 5.5 |  | 
